We go through 1 molecule from patent US20220213196A1 (published 2022).

This assay concerns the target T1, MAGEA3 peptide on HLA-A*01:01 (human).
T1 peptide: EVDPIGHLY
Put plainly: multimer staining.

B1:  (TCR, V domains shown)
Valpha: KQEVTQIPAALSVPEGENLVLNCSFTDSAIYNLQWFRQDPGKGLTSLLLIQSSQREQTSGRLNASLDKSSGRSTLYIAASQPGDSATYLCAVDNYGQNFVFGPGTRLSVLP
Vbeta: RPQVTQNPRYLITVTGKKLTVTCSQNMNHEYMSWYRQDPGLGLRQIYYSMNVEVTDKGDVPEGYKVSRKEKRNFPLILESPSPNQTSLYFCASSTTGSSPLHFGNGTRLTVT
In the case of B1, the binding result is reported as “recognises”.
